# Legend:
# [1] = test system: U937 human monocytic lymphoma cells; experiment: Proliferation of U937 cells (MTS assay); assay type: cell-based; conditions: serum-starved 48 h, treated 48 h
# Experimental: (§1) U937 cells (αvβ3+, α4β1+) were plated in wells of 96-well plates (10,000 cells/well), and serum-starved for 48 h. After treatment with wt or mutant sPLA2-IIA for 48 h, we measured cell proliferation by MTS assays. […] U937 cells were serum-starved for 24 h, and stimulated with wt and mutant sPLA2-IIA (0.5 μg/ml) for 10 min at 37° C. Cell lysates were analyzed by western blotting with anti-phospho ERK1/2 or anti-ERK1/2 antibodies. The blot is representative of three independent experiments.
# (§2) Cell proliferation and MAP kinase activation K562 cells and human monocytic lymphoma U937 cells were maintained in RPM11640 medium supplemented with 10% FCS. Cells were plated in 96-well plates (1×10^4 cells/well), and serum-starved for 48 h at 37° C. in 5% CO2 atmosphere. Cells were then treated with or without sPLA2-IIA in medium without serum for 48 h. Cell proliferation was determined by MTS assays using the Aqueous Cell Proliferation Assay Kit (Promega). For MAP kinase activation assays, cells were serum starved in RPMI1640 medium supplemented with 0.4% FCS for 24 h, and stimulated with Wt and mutant sPLA2-IIA (0.5 μg/ml) for 10 min at 37° C. ERK1/2 activation was measured as described (Mori, S. et al., J Biol Chem, in press (2008)).
# [2] = test system: ERK1/2; experiment: MAP kinase (ERK1/2) activation in U937 cells, western blotting; assay type: cell-based, human; conditions: 0.5 μg/ml, 10 min, 37° C.
# Experimental: as §1, §2
# [3] = target: T1, α4β1 binding to VCAM-1 (Homo sapiens, UniProt P05556+P13612); experiment: Adhesion of U937 cells to VCAM-1 in the presence of sPLA2-IIA; assay type: cell-based; conditions: increasing concentrations of sPLA2-IIA, 1 h, 37° C.
# T1 construct: integrin α4β1, a major integrin in U937 cells; endogenous in cells; host or cells: U937
# Experimental: (§3) FIG. 5. sPLA2-IIA binding to integrin α4β1. a) Cells expressing recombinant α4β1 adhered to wt sPLA2-IIA better than cells expressing other recombinant integrins. We used transfected K562 cells clonally express different human integrins for adhesion assays. Low background adhesion to BSA was subtracted. […] Wells of 96-well microtiter plate were coated with VCAM-1 and FN-GST, and incubated with U937 cells (1×10^4 cells/plate) in the presence of the increasing concentrations of sPLA2-IIA for 1 h at 37° C. Adherent cells were quantified using endogenous phosphatase after gently rinsing the well to remove unbound cells. Data is shown as means+/−SEM of triplicate experiments. *P=0.0101 and **P<0.0001 by t-test. c) Amino acid sequence in the α4 subunit that is critical for VCAM-1 and CS-1 binding is also critical for sPLA2-IIA binding. CHO cells that clonally express wt or mutant α4 (Irie, A. et al., Embo J, 14(22): 5550-5556 (1995)) were used for adhesion assays. Data is shown as means+/−SEM of triplicate experiments. Similar results were obtained using K562 cells expressing α4 mutants (not shown).
# (§4) Other methods We performed docking simulation of interaction between sPLA2-IIA and integrin αvβ3 using the AutoDock3 as previously described (Mori, S. et al., J Biol Chem, in press (2008)). […]
# [4] = test system: mutant α4 subunit (Tyr-189 and Gly-190 to Ala); experiment: Adhesion of CHO cells expressing wt or mutant α4 to sPLA2-IIA; assay type: cell-based
# Experimental: as §3, §4
# T1 sequence (P13612 34-1032): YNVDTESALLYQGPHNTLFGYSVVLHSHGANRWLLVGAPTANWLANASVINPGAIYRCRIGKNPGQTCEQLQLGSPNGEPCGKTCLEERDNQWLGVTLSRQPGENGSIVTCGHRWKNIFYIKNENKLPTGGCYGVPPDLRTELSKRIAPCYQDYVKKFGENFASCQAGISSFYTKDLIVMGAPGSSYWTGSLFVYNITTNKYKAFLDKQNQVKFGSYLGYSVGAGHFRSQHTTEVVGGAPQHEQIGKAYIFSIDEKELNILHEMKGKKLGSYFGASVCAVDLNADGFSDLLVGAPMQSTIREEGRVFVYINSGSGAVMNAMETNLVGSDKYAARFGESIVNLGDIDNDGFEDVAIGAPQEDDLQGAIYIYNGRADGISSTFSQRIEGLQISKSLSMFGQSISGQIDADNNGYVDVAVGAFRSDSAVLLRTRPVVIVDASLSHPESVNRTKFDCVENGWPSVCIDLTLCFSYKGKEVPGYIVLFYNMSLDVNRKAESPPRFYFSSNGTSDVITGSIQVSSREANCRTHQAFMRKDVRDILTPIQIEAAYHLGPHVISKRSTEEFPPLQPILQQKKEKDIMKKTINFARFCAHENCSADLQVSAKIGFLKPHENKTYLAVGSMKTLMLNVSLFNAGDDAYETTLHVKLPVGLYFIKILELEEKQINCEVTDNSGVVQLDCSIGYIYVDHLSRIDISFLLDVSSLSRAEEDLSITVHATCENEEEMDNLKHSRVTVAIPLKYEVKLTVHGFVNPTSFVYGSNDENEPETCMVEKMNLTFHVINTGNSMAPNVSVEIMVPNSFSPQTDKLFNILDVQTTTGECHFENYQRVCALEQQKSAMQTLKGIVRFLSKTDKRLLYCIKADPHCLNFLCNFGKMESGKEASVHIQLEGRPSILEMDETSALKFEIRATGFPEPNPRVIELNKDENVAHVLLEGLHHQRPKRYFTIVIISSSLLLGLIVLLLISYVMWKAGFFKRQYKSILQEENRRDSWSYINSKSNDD
# T1 sequence (P05556 21-798): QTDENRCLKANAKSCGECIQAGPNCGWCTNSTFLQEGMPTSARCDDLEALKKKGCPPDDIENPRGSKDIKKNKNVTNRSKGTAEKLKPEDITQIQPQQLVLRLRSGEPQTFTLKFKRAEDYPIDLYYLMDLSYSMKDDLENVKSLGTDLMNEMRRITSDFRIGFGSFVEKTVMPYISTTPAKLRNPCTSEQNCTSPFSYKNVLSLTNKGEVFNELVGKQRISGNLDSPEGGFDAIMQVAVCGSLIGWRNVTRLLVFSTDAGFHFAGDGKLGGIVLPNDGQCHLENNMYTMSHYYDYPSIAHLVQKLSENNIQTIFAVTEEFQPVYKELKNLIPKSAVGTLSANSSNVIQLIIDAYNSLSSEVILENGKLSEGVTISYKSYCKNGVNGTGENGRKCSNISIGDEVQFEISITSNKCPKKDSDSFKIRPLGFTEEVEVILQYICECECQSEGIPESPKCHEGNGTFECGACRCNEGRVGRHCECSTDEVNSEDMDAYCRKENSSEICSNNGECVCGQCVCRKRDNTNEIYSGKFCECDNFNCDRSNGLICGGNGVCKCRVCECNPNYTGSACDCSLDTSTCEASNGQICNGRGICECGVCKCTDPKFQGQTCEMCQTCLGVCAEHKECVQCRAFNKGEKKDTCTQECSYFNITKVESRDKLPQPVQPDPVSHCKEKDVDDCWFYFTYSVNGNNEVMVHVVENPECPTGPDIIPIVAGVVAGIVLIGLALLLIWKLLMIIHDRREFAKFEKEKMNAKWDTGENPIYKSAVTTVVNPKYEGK
molecule,measurement,setting,value
"wt sPLA2-IIA: Secretory phospholipase A2 group IIA, wild type, recombinant from bacteria BL21, refolded (protein, left off: small tags and cut ends) NLVNFHRMIKLTTGKEAALSYGFYGCHCGVGGRGSPKDATDRCCVTHDCCYKRLEKRGCGTKFLSYKFSNSGSRITCAKQDSCRSQLCECDKAAATCFARNKTTYNKKYQYYSNKHCRGSTPRC",proliferation of monocytic U937 cells,[1],induced robust proliferation
same,ERK1/2 activation in U937 cells,[2],induced
same,adhesion of U937 cells to VCAM-1,[3],suppressed adhesion
same,binding of α4 mutants (Tyr-189 and Gly-190 to Ala) to sPLA2-IIA,[4],blocked binding
